Reference: patent publication US20200113912A1, “Methods and Compositions for the Treatment of Disease with Immune Stimulatory Conjugates” (Silverback Therapeutics, Inc., priority 2018, published 2020)

How the values were obtained:
[1] = tested on: BMDM + MDA-MB-468 (HER2neg); test: mTNFα from bone marrow derived macrophages co-cultured with MDA-MB-468; assay type: cell-based, mouse; details: 24 hours; conjugate 100-0.001 nM, payload 1000-0.001 nM; HER2neg MDA-MB-468
Method: (§1) The ability of an anti-HER2-TLR7 conjugate to specifically activate mouse macrophages when bound to tumor cells by HER2 was assessed in vitro as follows. Bone marrow cells were harvested from BALB/cJ mouse femurs and tibias using a 27-gauge needle attached to a 3 mL syringe filled with growth media (DMEM supplemented with 10% Fetal Bovine Serum, 1 mM Sodium Pyruvate, 1× GlutaMAX-1, 1× Non-Essential Amino Acids, 10 mM HEPES and 0.5% Penicillin/Streptomycin). Bone marrow cells were centrifuged, and RBC were lysed before being counted and resuspended at a concentration 5×10^5/mL in growth media. Ten mL of cell suspension was placed in 10 cm dishes and 20 ng/mL murine macrophage-colony-stimulating factor (mM-CSF) was added. […] Bone marrow derived macrophage cells lines (BMDM) and tumor cell lines SK-BR-3 (HER2pos) or MDA-MB-468 (HER2neg) were removed from plates with Accutase cell detachment solution and counted. […]
(§2) After culture, supernatants were collected and frozen at −80° C. until cytokine analysis was performed. Murine TNFα (mTNFα) levels in the supernatant were determined by mTNFα ELISA Kit (BioLegend) and read on an Envision Plate Reader (Perkin Elmer, Waltham, Mass.) according to manufacturer's instructions. mTNFα levels were then graphed using GraphPad Prism 7.01 software (GraphPad Software, San Diego, Calif.) and EC50 values were generated using non-linear regression curve fit.

BMDM + SK-BR-3 (HER2pos) = test: mTNFα from bone marrow derived macrophages co-cultured with SK-BR-3; assay type: cell-based, mouse; details: 24 hours; conjugate 100-0.001 nM, payload 1000-0.001 nM; HER2pos SK-BR-3
Method: as §1, §2

[2] = Repeat-dose subcutaneous administration in cynomolgus monkey; assay type: in vivo; details: SC
Method: The monkey used in this study was purpose-bred, treatment-naïve, and housed and treated at Charles River Laboratories in Reno, Nev., in accordance with US FDA GLP regulations. The target age and weight of the animal at time of dosing was 2 to 4 years and 2.5 to 3.5 kg, respectively, and the animal used on study was female. HER2-TLR8 was evaluated on a repeat dose schedule as follows: 2 mg/kg dose was subcutaneously administered on a Q2W dosing schedule over 4 dosing cycles, 6 mg/kg was subcutaneously administered on a Q3W dosing schedule over 4 dosing cycles and 12 mg/kg was subcutaneously administered on a Q3W dosing schedule over 4 dosing cycles. After each dose, the animal was observed cage-side for clinical signs and symptoms associated with dosing.

C-reactive protein (CRP) = test: Pharmacodynamic response (CRP) after repeat SC dosing in non-human primates; assay type: in vivo, cynomolgus monkey; details: repeat-dose SC, 2, 6 and 12 mg/kg
Excerpt: Blood samples were collected by venous puncture at various timepoints and analyzed for blood chemistries, including C-reactive protein (CRP), using a standard blood analyzer.

[3] = Single-dose pharmacokinetic profile in cynomolgus monkey (serum ELISA); assay type: in vivo
Method: The pharmacokinetic profile of a single dose of HER2-TLR8 administered subcutaneously at 2, 6, or 12 mg/kg or intravenously at 7.5 mg/kg in cynomolgus monkey was studied. Blood was collected by venous puncture at a series of timepoints pre and post-dosing. Serum was prepared and HER2-TLR8 was measured by an ELISA assay in which serum samples were added to an assay plate coated with recombinant HER2 and HER2-TLR8 was detected using a labelled antibody directed against the TLR8 payload.

[4] = Repeat-dose intravenous administration in cynomolgus monkey; assay type: in vivo
Method: The monkey used in this study was purpose-bred, treatment-naïve, and housed and treated at Charles River Laboratories in Reno, Nev., in accordance with US FDA GLP regulations. The target age and weight of the animal at time of dosing was 2 to 4 years and 2.5 to 3.5 kg, respectively, and the animal used on study was female. HER2-TLR8 was evaluated on a repeat dose schedule as follows: 1 mg/kg was dosed on Day 1, followed by a 7.5 mg/kg dose administered one week later on Day 8 and a third 7.5 mg/kg dose administered three weeks later on Day 29. After each dose, the animal was observed cage-side for clinical signs and symptoms associated with dosing. […] This animal was euthanized due to the rapid onset of clinical signs of pale mucus membranes and face, hunched posture, decreased activity, hypothermia (as assessed by being cool to the touch), and labored, shallow breathing. These clinical signs presented within 2.5 hour following dosing on Day 29.

[5] = 10 μg per mouse, 5 minutes following second dose of HER2-TLR7 5 mg/kg
Method: Rectal temperatures and clinical scores were assessed as previously shown.

With `CCOCc1nc2c(N)nc3ccccc3c2n1CC(C)(C)OCCNC(=O)C(C)(C)N` [TLR7 payload compound] the “activation of macrophages (mTNFα in supernatant)” value [1] was “capable of potently activating the macrophages in the presence of both cell lines” and the “activation of macrophages (mTNFα in supernatant)” value (BMDM + SK-BR-3 (HER2pos)) was “capable of potently activating the macrophages in the presence of both cell lines”.

For `CCCN(CCC)C(=O)C1=Cc2ccc(C(=O)Nc3cnc4c(c3)CN(C(=O)OCc3ccc(NC(=O)[C@H](CCCNC(N)=O)NC(=O)[C@@H](NC(=O)CCCCCN5C(=O)C=CC5=O)C(C)C)cc3)CC4)cc2N=C(N)C1` [HER2-TLR8], the tolerability ([2]; 2 mg/kg Q2W, 6 mg/kg Q3W, 12 mg/kg Q3W, 4 dosing cycles) was “well-tolerated at all dose levels and through all dosing cycles”, the “clinical anaphylaxis-like signs or symptoms” value ([2]; first or repeat dose at any dose level (2, 6, 12 mg/kg)) was “No clinical, anaphylaxis-like signs or symptoms were observed” and the “C-reactive protein (CRP) in blood” value (C-reactive protein (CRP)) was “consistent, modest elevation of C-reactive protein (CRP) with each dosing cycle”. For the same molecule, the AUC ([3]; 7.5 mg/kg, IV, 7.5 mpk) was 3770 µg·h/mL, the AUC ([3]; subcutaneous, 2 mg/kg, SubC, 2 mpk) was 714 µg·h/mL and the AUC ([3]; subcutaneous, 6 mg/kg, SubC, 6 mpk) was 2400 µg·h/mL. For the same molecule, the AUC ([3]; subcutaneous, 12 mg/kg, SubC, 12 mpk) was 3650 µg·h/mL, the “anaphylaxis-like response after the first two doses” value ([4]; IV bolus, 1 mg/kg Day 1 and 7.5 mg/kg Day 8) was “did not produce an anaphylaxis-like response” and the “outcome of the third intravenous dose” value ([4]; IV bolus, 7.5 mg/kg Day 29) was “resulted in mortality”. For the same molecule, the “time to presentation of clinical signs following dosing” value ([4]; third IV dose, 7.5 mg/kg Day 29) was ≤ 2.5 h.

With `CNC[C@H](O)c1ccc(O)c(O)c1` [epinephrine] the “effect on toxicity of second IV dose of HER2-TLR7” value [5] was “mitigates the toxicity”.
